The record followed here is US20070184522A1, “Cell death modulation via antagonists of Fasl and Fas activation” (University of Pittsburgh of the Commonwealth System of …, priority 2004, published 2007).

In test [1] the target is CFP-tagged and YFP-tagged Fas expressed in Hepa 1-6 cells. As to the kind of experiment: cell-based or functional assay.
For test [2], the target named is endogenous Fas of Jurkat cells (human) (UniProt P25445). In words: cell-based or functional assay.
The target in test [3] is T1, Fas trimerization in Jurkat cells (Homo sapiens, UniProt P25445).
T1 construct: endogenous in cells; host or cells: Jurkat
T1 sequence (P25445 26-335): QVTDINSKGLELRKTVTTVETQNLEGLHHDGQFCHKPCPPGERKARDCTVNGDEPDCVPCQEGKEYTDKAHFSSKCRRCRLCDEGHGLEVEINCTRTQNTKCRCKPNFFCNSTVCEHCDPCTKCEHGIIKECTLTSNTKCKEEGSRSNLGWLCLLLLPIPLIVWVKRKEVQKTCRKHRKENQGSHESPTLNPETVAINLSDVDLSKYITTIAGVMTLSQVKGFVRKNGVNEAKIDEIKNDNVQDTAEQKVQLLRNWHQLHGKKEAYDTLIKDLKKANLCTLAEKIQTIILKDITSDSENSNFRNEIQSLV
In words: Chemical crosslinking (DTSSP) and Western blot of Fas trimerization in Jurkat cells. The conditions noted are these: Fas-Ligand and DTSSP. In kind it is cell-based. As for the experimental part: FIG. 3a presents data collected from Jurkat cells (1×10^6) treated with 2 μg/ml of Fas Ligand with or without AlphaMet for 30 minutes on ice. Cells were washed with PBS twice and then incubated with 2 mM of DTSSP in PBS for 30 minutes. The crosslinking process was stopped by 20 mM of Tris (pH 7.5) for another 30 minutes. Cells were spun down and washed with PBS twice and lyzed in RIPA buffer. Cell lysates were subjected to SDS-PAGE under non-reducing or reducing conditions (FIG. 3b) and Western blot analysis using the mouse monoclonal antibody against human Fas. FIG. 3c depicts the quantification of the data in FIG. 3a by densitometry. The data are the mean and SE from three different independent crosslinking and Western blot experiments. […] Frame A: Acceptor CFP-Fas image; Frame B: Acceptor pre-bleach CFP-Fas image; Frame C: Acceptor post-bleach image. Frame D: Donor YFP-Fas image; Frame E: Donor pre-bleach image; Frame F: […]. The CFP-Fas strength in the selected region obtained a gain of 19.3% efficiency in the presence of FasL for 15 minutes. No FRET was observed without FasL. […] FIG. 3e depicts the results of experiments in which CFP-tagged Fas or CFP control vector were transiently expressed in Hepa 1-6 Cells (3×10^5). […] Cells were fixed and analyzed by fluorescence microscopy. […]
(Immunoblotting shows a protein as a band on a membrane.)

The test system of test [4] is Fas self-assembly in Hepa 1-6 cells. As to the kind of experiment: FRET assay of CFP-Fas/YFP-Fas in transfected Hepa 1-6 cells. In kind it is cell-based. The conditions noted are these: Hepa 1-6, FasL for 15 minutes. As for the experimental part:
FIG. 3a presents data collected from Jurkat cells (1×10^6) treated with 2 μg/ml of Fas Ligand with or without AlphaMet for 30 minutes on ice. Cells were washed with PBS twice and then incubated with 2 mM of DTSSP in PBS for 30 minutes. The crosslinking process was stopped by 20 mM of Tris (pH 7.5) for another 30 minutes. Cells were spun down and washed with PBS twice and lyzed in RIPA buffer. Cell lysates were subjected to SDS-PAGE under non-reducing or reducing conditions (FIG. 3b) and Western blot analysis using the mouse monoclonal antibody against human Fas. FIG. 3c depicts the quantification of the data in FIG. 3a by densitometry. The data are the mean and SE from three different independent crosslinking and Western blot experiments. […] Frame A: Acceptor CFP-Fas image; Frame B: Acceptor pre-bleach CFP-Fas image; Frame C: Acceptor post-bleach image. Frame D: Donor YFP-Fas image; Frame E: Donor pre-bleach image; Frame F: Donor pre-bleach image. […] Cells were fixed and analyzed by fluorescence microscopy. […]
FRET assay. […] Fret efficiency (E) was calculated as FRETeff=(Dpost−Dpre)/Dpost (Dpost and Dpre are the mean emission intensity […] YFP bleaching).
Fluorescence protein tagged Fas molecules and Hepa 1-6 cells were used for these experiments. […] In these experiments the percent of Fas capping was also determined.

Test [5] concerns Fas capping in Hepa 1-6 cells. As to the kind of experiment: Fas capping of fluorescent protein tagged Fas in Hepa 1-6 cells. In kind it is cell-based. Conditions: Hepa 1-6, 30 minutes treatment. As for the experimental part:
FIG. 3a presents data collected from Jurkat cells (1×10^6) treated with 2 μg/ml of Fas Ligand with or without AlphaMet for 30 minutes on ice. Cells were washed with PBS twice and then incubated with 2 mM of DTSSP in PBS for 30 minutes. The crosslinking process was stopped by 20 mM of Tris (pH 7.5) for another 30 minutes. Cells were spun down and washed with PBS twice and lyzed in RIPA buffer. Cell lysates were subjected to SDS-PAGE under non-reducing or reducing conditions (FIG. 3b) and Western blot analysis using the mouse monoclonal antibody against human Fas. FIG. 3c depicts the quantification of the data in FIG. 3a by densitometry. The data are the mean and SE from three different independent crosslinking and Western blot experiments. […] Frame A: Acceptor CFP-Fas image; Frame B: Acceptor pre-bleach CFP-Fas image; Frame C: Acceptor post-bleach image. Frame D: Donor YFP-Fas image; Frame E: Donor pre-bleach image; Frame F: […]. The CFP-Fas strength in the selected region obtained a gain of 19.3% efficiency in the presence of FasL for 15 minutes. No FRET was observed without FasL. […] FIG. 3e depicts the results of experiments in which CFP-tagged Fas or CFP control vector were transiently expressed in Hepa 1-6 Cells (3×10^5). Cells were treated with 1 μg/ml of Fas ligand or 100 ng/ml of Jo2 with or without 5 μg/ml of AlphaMet or 1 μg/ml of YLGA 12 mer for 30 minutes on ice. Cells were fixed and analyzed by fluorescence microscopy. Frame A: AlphaMet treatment only, no FasL; Frame B: Fas ligand treatment only; Frame C: Fas ligand and AlphaMet treatment; Frame D: Fas ligand and 12 mer YLGA; Frame E: Jo2 treatment only and Frame F: Jo2 and AlphaMet treatment.
Fluorescence protein tagged Fas molecules and Hepa 1-6 cells were used for these experiments. These cells were transiently co-transfected with CFP and YFP chimeric Fas expression vectors using the lipofectamine 2000 method (Invitrogen). After 24 hours of transfection, about 50% of the cells were fluorescing. The cells were treated by Fas-ligand in the presence or absence of AlphaMet for 30 minutes. Treated cells were then fixed with cold methanol and subjected to FRET analysis. Cells were considered positive if FRET efficiency was over 10%. FRET phenomenon was observed only in cells that were treated with Fas-ligand. […] In these experiments the percent of Fas capping was also determined.

Another test concerns Jurkat cells. In words: Fas-ligand induced apoptosis in Jurkat cells (Trypan Blue, flow cytometry). In kind it is cell-based, human. How it is done: For FIG. 4a, Jurkat cells (1.5×10^5) were overnight treated in triplicate with 5 ng/ml of crosslinked human Fas ligand with or without 5 μg/ml of recombinant AlphaMet or 1 μg/ml of the indicated polypeptides. Percent apoptosis was determined by Trypan Blue staining using a hemocytometer. The data are representative and were repeated at least four times. […] The 17 kDa fragment of cleaved Caspase 3 is visualized by this antibody. The blot was reprobed for β-actin as a loading control. For FIG. 4c, serum deprived Hepa 1-6 cells (3×10^5) were overnight treated with 1 μg/ml of crosslinked mouse Fas ligand with or without AlphaMet or the indicated polypeptide. Media were collected and centrifuged to pellet the dead cells. […] The data in FIG. 4c represents three independent experiments.
Apoptosis assay. Pre-washed Jurkat cells in RPMI 1640 medium containing 1% FBS were inoculated in 96-wells at a density of 10^5 cells per well. Apoptosis was induced by cross-linked human Fas-ligand (R&D Systems) at a concentration of 0.5 ng/ml or Anti-Fas (human, activating) clone CH11 (Upstate biotechnology) at a concentration of 500 ng /ml. Hepa 1-6 cells were overnight starved before induction of apoptosis. The apoptosis in Hepa 1-6 was induced by anti-mouse Fas antibody Jo2 (200 ng/ml) or human recombinant Fas-ligand. The extent of cell viability and apoptosis was determined by several methods such as Trypan Blue stain, flow cytometry, LDH assay, and Hoechst staining.

For the molecule soluble Fas Ligand (recombinant FasL), in test [1], the FRET efficiency between CFP-Fas and YFP-Fas worked out at 19.3%; the percent of fluorescent cells showing Fas capping stood at 20%. In test [2], this molecule showed a Fas trimerization (DTSSP crosslinking, Western blot, densitometry) of 3 fold.

B1: FasL: recombinant soluble Fas Ligand, cognate ligand of Fas, used to induce apoptosis (protein)
chain: QLFHLQKELAELRESTSQMHTASSLEKQIGHPSPPPEKKELRKVAHLTGKSNSRSMPLEWEDTYGIVLLSGVKYKKGGLVINETGLYFVYSKVYFRGQSCNNLPLSHKVYMRNSKYPQDLVMMEGKMMSYCTTGQMWARSSYLGAVFNLTSADHLYVNVSELSLVNFEESQTFFGLYKL
As to B1, the “intensity of trimeric Fas complex versus ligand unstimulated crosslinked cells” value in test [3] is recorded as “about 3 fold”. Besides, in test [4], the FRET efficiency gain came out at 19.3%. The “fluorescent cells showing Fas capping” value in test [5] is reported as 20%. Further, the death rate entry in the test with Jurkat cells (Fas-ligand overnight, AlphaMet 5 μg/ml, Trypan Blue) is given as “about 50%”. Besides, in the test with Jurkat cells (Propidium Iodide flow cytometry, Fas-ligand), the “sub-G1 (apoptotic) population” value is given as 48%.
